Results on 5 molecules are retold here after patent US20130230510A1.

Experiment [1] deals with CD123 (human IL-3Rα) on cells (human) (UniProt P26951). Nature of the experiment: cell-based or functional assay.
Experiment [2] addresses CD123 (human IL-3Rα) (human) (UniProt P26951). Nature of the experiment: method not stated (indicative KD).
Experiment [3] shares this target. Nature of the experiment: method not stated.
The target of experiment [4] is CD123 (human IL-3Rα) on cells (human) (UniProt P26951). Nature of the experiment: cell-based or functional assay. This is another data set of the same source.

Broadly, the Kd is the free concentration of one partner at which half of the binding sites on the other are occupied at equilibrium, for simple one-to-one binding. Low readings indicate tighter binding, high ones weaker binding. For chimeric antibody CSL360, in experiment [1], the % CD107a positive NK cells, RMH003 AML target cells, CSL360 10 µg/mL (FIG. 8B) is 39%; the % lysis, 51Cr release ADCC, CTLEN cells, E:T 10:1 was 10%; the % lysis, 51Cr release ADCC, CTLEN cells, E:T 100:1 amounted to 51%; the % lysis, 51Cr release ADCC, SL (AML) cells, E:T 10:1 is 2.4%. Also, in experiment [1], the % lysis, 51Cr release ADCC, SL (AML) cells, E:T 100:1 came to 15%; the % lysis, calcein release ADCC, RBH013 (AML), E:T 10:1 was 0%; the % lysis, calcein release ADCC, RBH013 (AML), E:T 100:1 is 0%; the % lysis, calcein release ADCC, RMH003 (AML), E:T 10:1 is 39.2%. Besides, in experiment [1], the % lysis, calcein release ADCC, RMH003 (AML), E:T 100:1 is 82.6%; the % lysis, calcein release ADCC, RMH008 (AML), E:T 10:1 is 59.5%; the % lysis, calcein release ADCC, RMH008 (AML), E:T 100:1 is 100%; the % lysis, calcein release ADCC, RMH009 (B-ALL), E:T 10:1 was 0%. For the same molecule, in experiment [1], the % lysis, calcein release ADCC, RMH009 (B-ALL), E:T 100:1 was 0%; the % lysis, calcein release ADCC, RMH009* (B-ALL), repeat with other PBMC, E:T 10:1 was 0%; the % lysis, calcein release ADCC, RMH009* (B-ALL), repeat with other PBMC, E:T 100:1 is 0%; the % lysis, calcein release ADCC, RMH010 (AML), E:T 10:1 is 4%. For the same molecule, in experiment [1], the % lysis, calcein release ADCC, RMH010 (AML), E:T 100:1 was 0%; the % of NK cells expressing CD107a, E:T 1:1, target CTLEN-001 turned out to be 6.7%; the % of NK cells expressing CD107a, E:T 1:1, target CTLEN-008 turned out to be 24%; the % of NK cells expressing CD107a, E:T 1:1, target CTLEN-010 is 5.7%. In experiment [1], the % of NK cells expressing CD107a, E:T 1:1, target CTLEN-011-PBMC-1 was found to be 8.1%; the % of NK cells expressing CD107a, E:T 1:1, target CTLEN-011-PBMC-2 came out at 10.5%; the % of NK cells expressing CD107a, E:T 1:1, target EL4hi-002 is 2.9%; the % of NK cells expressing CD107a, E:T 1:1, target EL4hi-003 was determined as 15%. Besides, in experiment [1], the % of NK cells expressing CD107a, E:T 1:1, target EL4hi-004 is 16%; the % of NK cells expressing CD107a, E:T 1:1, target EL4hi-005 was determined as 21%; the % of NK cells expressing CD107a, E:T 1:1, target EL4hi-010 came to 34%; the % of NK cells expressing CD107a, E:T 1:1, target EL4hi-011-PBMC-1 amounted to 15.5%. In experiment [1], this molecule showed a % of NK cells expressing CD107a, E:T 1:1, target EL4hi-011-PBMC-2 of 23.5%; a % of NK cells expressing CD107a, E:T 1:1, target EL4hi/lo-001 of 2.8%; a % of NK cells expressing CD107a, E:T 1:1, target RBH009^a (AML) of 8.5%; a % of NK cells expressing CD107a, E:T 1:1, target RBH009^b (AML) of 8%. In experiment [1], this molecule yielded a % of NK cells expressing CD107a, E:T 1:1, target RBH013^a (AML) of 10%; a % of NK cells expressing CD107a, E:T 1:1, target RBH013^b (AML) of 22%; a % of NK cells expressing CD107a, E:T 1:1, target RMH003^a (AML) of 30%; a % of NK cells expressing CD107a, E:T 1:1, target RMH003^b (AML) of 33%. In experiment [1], this molecule came in with a % of NK cells expressing CD107a, E:T 1:1, target RMH003^c (AML) of 38%; a % of NK cells expressing CD107a, E:T 1:1, target RMH007 (B-ALL) of 16.4%; a % of NK cells expressing CD107a, E:T 1:1, target RMH008^a (AML) of 9%; a % of NK cells expressing CD107a, E:T 1:1, target RMH008^b (AML) of 16%. In experiment [1], the % of NK cells expressing CD107a, E:T 1:1, target RMH008^c (AML) turned out to be 8.7%; the % of NK cells expressing CD107a, E:T 1:1, target RMH009^a (B-ALL) turned out to be 3%; the % of NK cells expressing CD107a, E:T 1:1, target RMH009^b (B-ALL) is 1.7%; the % of NK cells expressing CD107a, E:T 1:1, target RMH009^c (B-ALL) was determined as 7.4%. In experiment [1], this molecule yielded a % of NK cells expressing CD107a, E:T 1:1, target RMH010^a (AML) of 14%; a % of NK cells expressing CD107a, E:T 1:1, target RMH010^b (AML) of 25.5%; a % of NK cells expressing CD107a, E:T 1:1, target RMH011 (AML) of 6.6%; a % of NK cells expressing CD107a, E:T 1:1, target TF-1 (GM-CSF) of 0.7%. For the same molecule, in experiment [1], the % of NK cells expressing CD107a, E:T 1:1, target TF-1(IL-3) amounted to 1.45% and the IC50, IL-3-dependent TF-1 cell proliferation was 5 nM. Besides, the dissociation constant (Kd) in experiment [2] worked out at 1.06 nM.

In experiment [1], “defucosylated hCSL360 produced by kifunensine treatment (hCSL360kif) (antibody)” yielded an antibody concentration for almost complete ADCC lysis of Raji-CD123 high cells, E:T 50:1 of 1 ng/mL.

In the case of “humanised CSL360S239D/A330L/I332E (hCSL360Fc3) (from UniProt P01857 1-330) (antibody)”, in experiment [1], the antibody concentration for almost complete ADCC lysis of Raji-CD123 high cells, E:T 50:1 worked out at 1 ng/mL.

In experiment [3], “humanised variant of CSL360 (hCSL360) (antibody)” had a fold decrease in affinity compared to the chimeric MAb (CSL360) of 10 fold. This molecule came in with an IC50, IL-3-dependent TF-1 cell proliferation in experiment [1] of 19 nM. For the same molecule, in experiment [2], the equilibrium dissociation constant (Kd) came out at 12.8 nM.

B1: monoclonal antibody (MAb) 7G3 (antibody, from another filing, V domains shown)
VH: EVQLQQSGPELVKPGASVKMSCKASGYTFTDYYMKWVKQSHGKSLEWIGDIIPSNGATFYNQKFKGKATLTVDRSSSTAYMHLNSLTSEDSAVYYCTRSHLLRASWFAYWGQGTLVTVSA
VL: DFVMTQSPSSLTVTAGEKVTMSCKSSQSLLNSGNQKNYLTWYLQKPGQPPKLLIYWASTRESGVPDRFTGSGSGTDFTLTISSVQAEDLAVYYCQNDYSYPYTFGGGTKLEIKR
As to B1, the IL-3 (1 nM)-stimulated CD131 tyrosine phosphorylation, STAT-5 and Akt activation in TF-1 cells; 7G3 concentration that blocks completely in experiment [4] is 100 nM.
